From a protein production outcome set (Wang et al. 2014) come the findings set out here.

The series is described as follows: label from the status in PepcDB records.
Turning to “MFSIVFPVIAPVLIVVAVGFGWARAGRPFDTATVSALGLGLGTPFLLTDVLMSANIAADALAAMGLAALLTLAGMAVGGALTLRLLKLPQAVFLPSMIFGNTGNIALPLCLFAFGDEGLALSIGYFTVVIVIQFSATALISSGERPVPVILRNPVIWTLLVVGTLKAGGIALPGWLADTAHMVGGMCIPVMLLALGVSLARLKVAGLGVALLLGAVKIALGVALGYATVLALDLHGAARGVVLIQSAMPPAVFNYLFAARYNQRPEEVAGLVIVSTGLSVLTMPLLLWGAMADM”, the protein production result was “failed”.

For “MKIGRYEVCGLLGRGGMGVVYKVRQPVTGRVAALKLLKPADILVDLAGMDALREGFLHEATVMASLDHPHVAAVWDVDEAGGLPFFVMEYYCLNLGLLMGESYRVEAPTRRLPLERAVRYARQTLEALRRMHHEGIVHRDVKPFNIMVTGDDAVKLIDFGLSRLRGETRLSPRGVKVGSPYYAPPEQESAPDAVDARADLYPVGVMLFRMLTGVLPTDEERMKDGRIPRASALSDELDEGWDAFFDTAMAADPARRFPDAASMLAALARCEAAWRKQVEATCRLIPEQAAGPGDASDMRHDAGHESVQAGQTDETGQAGQAGQAGQAVTCEGAPAASGGVRCRPVKVGVHEARATFALDALWRPASAARQGLEARDDGTVSHAATGLQWETGGCDFPLTRDEAEAYVEARNALRFAGHDDWRLPTVDELLTLVDAGVTVGDPCVASVFAPLPDPLWTSDRKSYMASWFVSAAMGFVGWQDDTCRFGVRLVRGGSARCRE”, the protein production result was “failed”.

With “MSWACRPATAQRQAGRNGGAPTVQSRVPRRASPRTHHPFVRLVATTLRPVRPYSDLLQHRLLHPMHRFVIVGLGNFGASVAEALYSHGHDVIAVDVDEQAVDDIAPHCSRAAVGDGREAATLEEIGAEAADAAVVSTGDDITASILATMALQDLGVDVVYVKVISDNHARIMRQLGATEAVFPERDSAFNLASRISEKGVVNYVRMGRNLSVQELVVPEEWRGHTLRELDVRAEYGVSVVGIHETTIDDMIVPPNPDDTLRHTDTLILAGTDEAIEKVADLASATAEEAE”, the protein production result is on record as “failed”.

Turning to “MADKEAAFDDAVEERVINEEYKIWKKNTPFLYDLVMTHALEWPSLTAQWLPDVTRPDGKDFSIHRLVLGTHTSDEQNHLVIASVQLPNDDAQFDASHYDSEKGEFGGFGSVSGKIEIEIKINHEGEVNRARYMPQNPCIIATKTPSCDVLVFDYTKHPSKPDPSGECNPDLRLRGHQKEGYGLSWNPNLSGNLLSASDDHTICLWDISAVPKEGKVVDAKTIFTGHTAVVEDVSWHLLHESLFGSVADDQKLMIWDTRSNNTSKPSHSVDAHTAEVNCLSFNPYSEFILATGSADKTVALWDLRNLKLKLHSFESHKDEIFQVQWSPHNETILASSGTDRRLNVWDLSKIGEEQSPEDAEDGPPELLFIHGGHTAKISDFSWNPNEPWVICSVSEDNIMQVWQMAENIYNDEDTEGSVDPEGQGS”, the protein production result is given as “not failed”.

With “MSIELDATTYIHAKPTTAHSYILPKIFDVLGDHFDGSAENDVFDLGCGTGGAAAALTKAGYDVVGVDPSSDGIGKANIRHPGLALSVGSAYDDLSREYGSFSAVISLEVVEHVYDPKTFTSTMFDLVKPGGIAVISTPYHGYLKNLALAATGKMDDHFMPLKDHGHIKFWSKNTLRTLLLETGFANVRFEYVGRIPAFAKSMIAVADKPFSQSARHGAVRRSSPEVVSTACRQKKP”, the protein production result is “failed”.

Consider “VEVESFLVHPGDLLQLRCRLRDDVQSINWLRDGVQLAESNRTRITGEEVEVQDSVPADSGLYACVTSSPSGSDTTYFSVNVSDALP”, for which the protein production result is on record as “not failed”.

For the sequence “MLTLIKRTVLAAGLIGTTLGAAAQPPRAYPLKDFFRNPERGYFRLADDGKTLGFMQPVSIDGQPPRMNIYVQALADGVPAGEPRKLTSETARDISNFFWKGDDTVLYQKDFGGDENFHVLAVNARTGQVADLTPYEGVRASIEDDLPDDPDHVLISHNRRDPQVFDVYRVNVRTGAAELVAQNPGNVVGWQTDHAGKVRAAITSDGLNTTLLYRDDEAAPFRPLITTDYRVSVSPAFFTFDDRKLYALSNRGRDKLALVVIDPATPDVEQPVFEPDEVDLDAAGYSRKRKVLTVASYQTDKPRHRFFDAETEALYARLARALPGYDFALQGWNRDEDTFIVAAYNDRTPGSRYLYDARRDSLHKLADINPAIPEADMAPVRPVSYQSRDGLTIHGYLTLPAGRAPRNLACIVNPHGGPWARDGWGYNPEVQFLANRGFCVLQMNFRGSTGYGRKFWEAGFGQWGLKMQDDITDGVQWLIDQGIADPRRIGIYGGSYGGYATLAGVAFTPDLYAAAVDYVGVSNLFTFMNTIPPYWKPLLAKMQDMVGDPVRDKARLEATSPALHVDRIKTPLFIAQGAKDPRVNKAESDQVVQALRQRGVEVEYMVKDNEGHGFHNDENKFEFYAAMEKFFTEHLKP”, the protein production entry is “failed”.

On to “MESTLSQLLPEALATRRRALAQMITGLHLAEHVHLSKVAGRIAGTAQLESKTRHLRRFLGNENVDPERFYSPVRDRLIEWAAQGAETQGSGPIRLLVDTVELSGERQVLMAGIAYRRRALPICWETYRREGVTNAEQQISLLKALVGRFPDEAEVVVVGDGAFHSTDLMDFIEDQGWHFCLRLHADTYIRSFKDSSKGFPKEGTWKQLRDLVPEEGERRYLQDVIVTKDNEYGPVGLALCQAEDEDDP”, for which the protein production entry is recorded as “failed”.

“MNSLLFVYGTLRKHEKNHHLLAQSACINEQARTKGSLFAAKEGPTVVFNDEDEGYIYGEVYEADELCIHKLDQFFQGYHKQTVFVETDVGIKIALIYFMNKDGCAGFTKISSGDWKEHQMISKSKNPIYYFAYGSCMDNARFQKAGVDHYFQDPVGRAVLKGYTTRFTLKREDGSRADMLEDGGTTEGVLYRIPYSALSYLYKREGVESLTYRPAFVDVEAGGRHYKDCLTFLVLQKEAEIAPPQHYQIEIERGAELYLSPEFTEKLKRHMNSLPKGLEHHHHHH”: the protein production result is “not failed”.

On to “MFLIILIKSLIIGGLVGVGVGAGAARMFHAPTTQGMGAFRTLGELNSCEGDPASHFSFGLGFFFNAWASSVAAGSFTQDVDHRIIPNWGAAALMLKNRNVGETLHDPKKMAISCGIIGMIVVAFLNLTASSVPEALQVTAVKVLVPAANLLVNTVMPVIFWLAAIDAGKKSGFWATIFGGAAQLIMGNAVPGLVLGILIGKGVEESGWNRVTKVMMVAIVALFVLSGFFRGFDMKMIESFHLTVPNWLDMIHNSLSGK”, for which the protein production result is reported as “failed”.

Consider “MKISTKDLVLCALFAAISCVLAQISIQLPFSPVPFTMQVMAVYLAGIILGAKKGFISQLVYVVLGAIGAPVFANFTGGVGAILGPAGGFIIAFPFMALIVGCVADKCRTKAYIIISMVLASVVCYVFGALWLVLVTKISFALAIKTAVLPFILFDMLKIIIVSIIGINIRSRIISGGLA”, for which the protein production result was “failed”.

As to “MNTVDEDIKFKEVPGITNILLLSSDARPGEDVSRSDSIMILTIDNINKKLKVTSLMRDMLVKIDGHGEEKLNHAFAYGGPTKTIETIQNNFGIKLNNYVIVDFNAFVKVIDAINGIEVTVKDYELDELNKYILDGGGSEEDLLPSPGTYNLNGYQALSYARIRKVGNGEYERTERQRAVLQIALEKVKDMSTVKLVSLLNELFPYVKTNISLGNAMDYGFTALNVGKKCNFEIEQFRVPLDSISKGGIINNKGWVFVIDKVETSKALQEFIFNDNKNYEPDTSNFDSIIEQYFNDYDIKDDTTHPDYEYVPSINTNGNFEKPKNNSGNSSNNNSNNKVEKPSNQGNSVNSSNKPSNGSTSTGNNSTEKPNTSEKPSIPQETPTEKPLEHHHHHH”, the protein production entry was “failed”.

For “MPRAPRCRAVRSLLRSHYREVLPLATFVRRLGPQGWRLVQRGDPAAFRALVAQCLVCVPWDARPPPAAPSFRQVSCLKELVARVLQRLCERGAKNVLAFGFALLDGARGGPPEAFTTSVRSYLPNTVTDALRGSGAWGLLLRRVGDDVLVHLLARCALFVLVAPSCAYQVCGPPLYQLGAATQARPPPHASGPRRRLGCE”, the protein production result was “failed”.

For the sequence “MAELILNQRPYPRDLGKIVCVGRNYAAHAKELNNPIPSSPILFIKPASSAVPFGPVFSIPKDQGSVHHELEIAILIGKALSRASTEQVAESIAGIGLGLDLTLRDVQDQLKEKGHPWERAKSFDGACPLTEFVAVNLASEDEWQAIGLTLEKNGQFQQQGSSAEMLFPILPLIAHMSEHFSLQPGDVILTGTPAGVGPLEVGDSLSAKLSLEDNVLLTCDGVVI”, the protein production result is “not failed”.
